Results as given in US6994959, “G-rich oligo aptamers and methods of modulating an immune response” (Valeant Research & Development).

B1: 28b oligo (-51 to -22) (dsDNA)
DNA 1: GGGTTCCTCGGGGAGGAGGGGCTGGAACCC
DNA 2: GGGTTCCAGCCCCTCCTCCCCGAGGAACCC

Tests used:
Sp1 [1] = biological target: T1, Sp1 (UniProt P08047 P08047:2-785); experiment: competition; control oligo did not compete; about 70-100 molar excess; conditions: tags: Promega purified Sp1
Procedure: (§1) In an effort to restrict the precise Sp1 binding region in 28b to the G-rich motif in the CD28 promoter region –197 to +28, we synthesized a double stranded (ds) 30mer oligo called 28b oligo (Seq #1 Table 1) which contains the 12mer GGGGAGGAGGGG within its sequence. We hypothesized that this was a Sp1 binding site in the CD28 promoter region. Following 32P-labeling, 28b oligo was incubated with Sp1 extract and indeed they bind to each other (FIG. 5, band A, lane 2 and 3). Competition with cold ds 28b oligo caused the band to disappear showing indeed that the binding was specific to Sp1 (lane 4). […] The consequence of this interaction is the prevention of Sp1 binding to the Sp1 site at –51 to –22 in the promoter region and which inhibits Sp1-mediated transcription of the CD28 gene and decreases expression of the mature CD28 protein.

Sp1 [2] = biological target: T1, Sp1; experiment: competition; competes with 32P ds 28b oligo; about 70-100 molar excess; conditions: tags: Promega purified Sp1
Procedure: as §1

Sp1 [3] = biological target: T1, Sp1; experiment: EMSA; band A; competed by cold ds 28b oligo; room temperature; conditions: tags: Promega purified Sp1; label: 32P
Procedure: as §1

T1 sequence (P08047 2-785, one chain of several): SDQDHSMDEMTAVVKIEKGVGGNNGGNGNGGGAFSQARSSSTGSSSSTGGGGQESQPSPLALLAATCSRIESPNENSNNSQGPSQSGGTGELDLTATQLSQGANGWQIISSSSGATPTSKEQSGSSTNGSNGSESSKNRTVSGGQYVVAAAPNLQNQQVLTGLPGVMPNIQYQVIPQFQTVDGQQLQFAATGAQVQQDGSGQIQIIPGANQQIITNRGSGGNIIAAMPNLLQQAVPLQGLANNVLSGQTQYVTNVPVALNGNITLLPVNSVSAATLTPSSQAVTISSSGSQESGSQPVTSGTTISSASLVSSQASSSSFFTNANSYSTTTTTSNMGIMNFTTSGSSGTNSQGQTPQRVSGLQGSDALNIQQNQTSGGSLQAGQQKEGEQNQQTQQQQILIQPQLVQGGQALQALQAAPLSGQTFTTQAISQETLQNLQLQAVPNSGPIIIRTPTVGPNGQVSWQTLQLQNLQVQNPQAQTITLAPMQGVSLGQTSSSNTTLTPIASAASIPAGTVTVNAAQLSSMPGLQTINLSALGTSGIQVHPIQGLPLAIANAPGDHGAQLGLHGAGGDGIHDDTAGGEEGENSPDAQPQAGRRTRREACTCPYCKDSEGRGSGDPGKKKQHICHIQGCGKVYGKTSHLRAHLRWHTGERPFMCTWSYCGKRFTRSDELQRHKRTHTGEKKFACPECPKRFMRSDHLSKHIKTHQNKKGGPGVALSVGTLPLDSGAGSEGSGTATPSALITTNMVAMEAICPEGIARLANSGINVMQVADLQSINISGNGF

| Binder | binding result (Sp1 [2]) | further results |
| --- | --- | --- |
| TTCCAGCCCCTCCTCCCC (ssDNA, PS all linkages) [ICN 16476] |  | binding result (Sp1 [1]): no binding |
| GGGGAGGAGGGGCTGGAA (ssDNA, PS all linkages) [ICN 16481] | binds |  |
| B1 |  | binding result (Sp1 [3]): binds |
| TTGGAGGGGGTGGTGGGG (ssDNA, PS all linkages) [ICN 16064] | binds |  |
